According to the supplement of paper PMC10567573:
± gives the standard deviation.

Assay: protein stability index of a GFP-peptide fusion (GPS, HEK-293T) (PSI 1-6); higher = more stable
[1] = treatment: DMSO, c terminus: a fixed tail appended
[2] = treatment: MLN4924 1 uM, 8 h, c terminus: a fixed tail appended
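Further: 24-mer peptide tiles fused after GFP, lentivirally expressed, FACS-sorted into six equal bins by GFP/DsRed ratio, decoded by Illumina sequencing, PSI is the read-weighted mean bin number.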

Row | Sequence | protein stability index [1] | protein stability index [2] | protein stability index (treatment: DMSO, c terminus: native) | protein stability index (treatment: MLN4924 1 uM, 8 h, c terminus: native)
1 | VCSSNKPAIVEAGGMQALGLHLTD [CTNNB1] | 4.04 ± 0.087 | 3.89 ± 0.16 |  | 
2 | VDDAYVRRMAAEATEWQKAGAPPP [SRPK2] | 4.52 ± 0.26 | 4.63 ± 0.16 |  | 
3 | VDEVSVSLRLWDTFGDHHKDRRFA [RHOBTB1] | 3.01 ± 0.1 | 3.08 ± 0.2 |  | 
4 | VEINDLDPEVFKEMMRFIYTGRAP [SPOPL] | 2.36 ± 0.33 | 2.05 ± 0.28 |  | 
5 | VELGKQKKKYMPYNHQHKYFFLIG [FADS1] | 2.29 ± 0.94 | 3.12 ± 0.48 |  | 
6 | VELLLARKISVNAKDEDQWTALHF [RIPK4] | 2.91 ± 0.82 | 1.83 ± 0.4 |  | 
7 | VELLPPAPKGKGRKPAAGAQSAGT [BRD3] | 4.58 ± 0.3 | 4.87 ± 0.42 |  | 
8 | VELPMNSSNGNDNGNGKNGGLEHV [BNIP3L] | 5.25 ± 0.17 | 5.23 ± 0.22 |  | 
9 | VEPETRAVIRWMHSFNFVLSANLH [CPN1] | 3.1 ± 0.12 | 3.19 ± 0.27 |  | 
10 | VEVGDKTHWAVGVCRDSVSRKGEL [TRIM39] | 3.06 ± 0.15 | 3.2 ± 0.17 |  | 
11 | VHRGDGANPFQAYLDVDLTLTREQ [RTN2] | 3.88 ± 0.088 | 3.82 ± 0.25 |  | 
12 | VIGALLRFNQAILVSRHDPASRRR [LPCAT4] | 2.28 ± 0.22 | 2.36 ± 0.19 |  | 
13 | VKMALDIEIATYRKLLEGEESRIS [PRPH] | 2.61 ± 0.13 | 2.7 ± 0.39 |  | 
14 | VKNVVSGGFPIIRDQIFRYVHDPE [FBXO3] | 2.53 ± 0.31 | 2.63 ± 0.38 |  | 
15 | VKVPTTLAEYCVKTKAPAPDEGSD [CDC34] | 5.07 ± 0.43 | 4.97 ± 0.12 |  | 
16 | VLDILTEQREWVLKSSILIAMAVY [INTS3] | 2.57 ± 0.33 | 2.48 ± 0.61 |  | 
17 | VLKAHNEYRQKHGVPPLKLCKNLN [GLIPR2] | 2.92 ± 0.17 | 3.33 ± 0.18 |  | 
18 | VLQSVRELSRSRKLYGQRERVWAL [FCHSD1] | 2.06 ± 0.24 | 2.37 ± 0.25 |  | 
19 | VMRMLGQTPTKEELDAIIEEVDED [TNNC2] | 5.41 ± 0.28 | 5.34 ± 0.27 |  | 
20 | VNMYVSIVFFGLISFDRYYKIVKP [P2RY14] | 3.66 ± 0.41 | 3.06 ± 0.28 |  | 
21 | VPLWGQLLLFLVFVIVLFFIYHFM [EMD] | 2.41 ± 0.17 | 2.17 ± 0.47 |  | 
22 | VQFSHHVFLNLHTLKFYCLPDNYE [USP39] | 2.89 ± 0.61 | 3.04 ± 0.74 |  | 

Row | Sequence | protein stability index [1] | protein stability index [2] | protein stability index (treatment: DMSO, c terminus: native) | protein stability index (treatment: MLN4924 1 uM, 8 h, c terminus: native)
23 | VQKDKYPEEFSLLKLQTKDGHRPE [SPATS1] | 4.64 ± 0.23 | 5 ± 0.33 |  | 
24 | VQLAQQQAALQKQQEVVVAGSSLP [ACBD3] | 4.12 ± 0.11 | 4.49 ± 0.26 |  | 
25 | VQWKEPEEPNGQIQGYRVYYTMDP [PTPRD] | 3.3 ± 0.16 | 3.17 ± 0.23 |  | 
26 | VRELRIAFREFDRDRDGRITVAEL [CABP4] | 2.7 ± 0.49 | 2.98 ± 0.17 |  | 
27 | VRKANRIKECLSKGTFSDVTFKLD [RHOBTB1] | 3.33 ± 0.21 | 3.43 ± 0.19 |  | 
28 | VSEFLKVAEQVGIDKGDIPDLTQA [SNAP91] | 4.18 ± 0.45 | 4.13 ± 0.44 |  | 
29 | VSGDTSKLMKILQPQDVDLALDSG [RIPK4] | 4.57 ± 0.16 | 4.68 ± 0.32 |  | 
30 | VSNFLKERTGFSIRPVAGYLSPRD [TPH1] | 2.71 ± 0.33 | 2.95 ± 0.31 |  | 
31 | VSNMSGPSGEEEAKVGPGLPDGCQ [CBY2] | 5.46 ± 0.12 | 5.16 ± 0.16 |  | 
32 | VTKSPEKRSSLPRPSSILPPRRGV [MAP2] | 4.58 ± 0.16 | 4.72 ± 0.19 |  | 
33 | VTLRRGLRSRASRCRPRSLIDYKS [FAM189A2] | 2.12 ± 0.33 | 2.23 ± 0.39 |  | 
34 | VTNPHSSQWKDPALSQLICFCRES [GADD45A] | 2.5 ± 0.24 | 2.67 ± 0.33 |  | 
35 | VVKLLVSHGANVNHTTVTNSTPLR [FEM1B] | 2.25 ± 0.26 | 2.29 ± 0.27 |  | 
36 | VVPGDHLLEPEVADGGGAPPQGGC [KCNA3] | 5.37 ± 0.14 | 5.29 ± 0.12 |  | 
37 | VWFGGREHVLMFAKLALYPCASLL [TMEM175] | 2.77 ± 0.26 | 3.18 ± 0.27 |  | 
38 | VWSCEGCKAFFKRSIQGHNDYICP [ESR2] | 2.32 ± 0.16 | 2.15 ± 0.11 |  | 
39 | VWVLMDEDVRIFFYQSPYDSEQVP [NCF4] | 2.3 ± 0.71 | 2.33 ± 0.64 |  | 
40 | VYTNLSSYSPASASSGGAGAAVGT [JUNB] | 3.26 ± 0.29 | 3.49 ± 0.27 |  | 
41 | WEISDDYPSLQAMGWFNNEVGSMK [CRYBA1] | 3.19 ± 0.24 | 3.42 ± 0.38 |  | 
42 | WEQKVLVIVMTTRFEEGGRRKCGQ [PTPN9] | 2.28 ± 0.2 | 2.28 ± 0.34 |  | 
43 | WETIRSFKDEWTQLDMFYRNWALK [AASDHPPT] | 2.14 ± 0.13 | 2.08 ± 0.32 |  | 
44 | WKNTKKMGVGKASASDGSSFVVAR [GLIPR2] | 3.64 ± 0.27 | 3.71 ± 0.3 |  | 

Row | Sequence | protein stability index [1] | protein stability index [2] | protein stability index (treatment: DMSO, c terminus: native) | protein stability index (treatment: MLN4924 1 uM, 8 h, c terminus: native)
45 | WKYILLGLADVEANYVIVRAYQYT [SLC35F2] | 2.77 ± 0.66 | 2.86 ± 0.26 |  | 
46 | WLDPGHTAVAQAPPAVASSSLFDL [SERTAD1] | 3.33 ± 0.27 | 3.38 ± 0.097 |  | 
47 | WRFVLQRLVFLAAFVVYLETETLV [TSN] | 2.68 ± 0.54 | 3.66 ± 0.17 |  | 
48 | WSKTQVLDWISYQVEKNKYDASAI [ELF3] | 2.59 ± 0.2 | 2.48 ± 0.28 |  | 
49 | WYFWGETFQNSVFVATFLRYAVVL [SCD] | 3.37 ± 0.33 | 3.36 ± 0.85 |  | 
50 | YATLDLNAVKYVSNIKFCSFHPLQ [PDS5B] | 2.31 ± 0.68 | 2.18 ± 0.35 |  | 
51 | YAVEASTMAQHAEVLVKSNNLTDR [CARM1] | 4.16 ± 0.14 | 4.64 ± 0.34 |  | 
52 | YGYNNVVTIPAGATHILVRQQGNP [ADAMTS4] | 2.53 ± 0.13 | 2.72 ± 0.34 |  | 
53 | YHIYVALEEEIERNKESPVFAPVY [HMOX1] | 2.32 ± 0.28 | 3.03 ± 0.51 |  | 
54 | YIEMQTDPANCDYVIVSGAQRKEE [YJU2B] | 4.2 ± 0.2 | 4.57 ± 0.36 |  | 
55 | YIIIVPLKKSRGKFIKPWESPDEM [PTPRD] | 2.5 ± 0.45 | 3.02 ± 1.5 |  | 
56 | YKVKERLGTLKNPPKKKMKLMSG [LCOR] |  |  | 2.51 ± 0.41 | 3.27 ± 0.068
57 | YLSLLRMYLSPPSIHCLGPIKLEL [VPS39] | 3.26 ± 0.43 | 2.94 ± 0.16 |  | 
58 | YPVGRFPSLHVVKVLLDCGADPDS [FEM1A] | 2.12 ± 0.17 | 2.38 ± 0.51 |  | 
59 | YQDDPDLRFLLDQVQLGLRCCGAA [TSPAN10] | 2.56 ± 0.28 | 2.65 ± 0.22 |  | 
60 | YQSKGYNDDYYEESYFTTRTYGEP [EMD] | 2.78 ± 0.2 | 3.22 ± 0.29 |  | 
61 | YRVLLGHTLILMFIWFVCSLVYYG [SLC22A15] | 2.32 ± 0.53 | 2.33 ± 0.57 |  | 
62 | YTVLGDTLIDGGEHYWEVRYEPDS [FSD1] | 3.02 ± 0.2 | 2.97 ± 0.34 |  | 
63 | YVFYLAVGNYRLKEYEKALKYVRG [FIS1] | 2.79 ± 0.36 | 2.39 ± 0.58 |  | 
64 | YVGNLPPDIRTKDIEDVFYKYGAI [SRSF1] | 2.28 ± 0.35 | 2.43 ± 0.36 |  | 
65 | YVPEKVKKAEKKLEENPYDLDAWS [CSTF3] | 3.06 ± 0.62 | 3.26 ± 0.87 |  | 
66 | YYEMGIHCWDVAGAGIIVTEAGGV [IMPA1] | 2.21 ± 0.34 | 2.03 ± 0.37 |  | 
